Test results reported in PMC4893915.
Changes are numbered by the printed parent chain. Where two headings read alike, the source gives them in different places.

B1: 1xGT (dsDNA)
DNA 1: TTCGATACACTTGTGGAATGTGTTTGATTTGTTAGCCCCG
DNA 2: CGGGGCTAACAAATCAAACACATTCCACAAGTGTATCGAA
B2: 2xGT (dsDNA)
DNA 1: B1 DNA 1 with T24G, T25G, G26A, T29G
DNA 2: B1 DNA 2 with A12C, C15T, A16C, A17C

Assays:
Assay in all cases: EMSA
[1] = target: TEAD DBD, monomeric SEC fraction (F#61) (human, UniProt P28347 28-104)
[2] = target: T1, ΔL1 TEAD DBD (truncated L1 loop) (human, UniProt P28347 28-104, del52-63)
[3] = target: TEAD DBD, multimeric SEC fraction (F#50) (human, UniProt P28347 28-104)
[4] = target: T1, ΔL1 TEAD DBD (truncated L1 loop); remark: listed apart in the source
TEAD DBD (before SEC) = TEAD DBD (before SEC) (human, UniProt P28347 28-104)

Binder | binding result [1] | Kd [2] [nM] | binding result [3] | Kd [4] [nM] | binding result (TEAD DBD (before SEC))
B1 | binds | 7.9 ± 1.4 | binds |  | 
B2 | binds |  | binds | 8.7 | binds
